Key:
Assay in all cases: MST; Monolith NT.115; 8.32 nM His-tagged DHS labelled with RED-tris-NTA, eIF5A titrated 0.00175-57.5 uM; 50 mM Tris, 200 mM NaCl, 5 mM beta-ME pH 8; free buffer
Settings in all cases: both partners purified
[1] = target: T1, deoxyhypusine synthase E137A, His-tagged (human, UniProt P49366 1-369, E137A)
T1 construct: deoxyhypusine synthase (DHS), Homo sapiens, UniProt P49366, residues 1-369; source: E. coli, purified; His-tagged protein labelled with RED-tris-NTA for MST; not shown: His6, N-terminal, kept
T1 sequence (looked up): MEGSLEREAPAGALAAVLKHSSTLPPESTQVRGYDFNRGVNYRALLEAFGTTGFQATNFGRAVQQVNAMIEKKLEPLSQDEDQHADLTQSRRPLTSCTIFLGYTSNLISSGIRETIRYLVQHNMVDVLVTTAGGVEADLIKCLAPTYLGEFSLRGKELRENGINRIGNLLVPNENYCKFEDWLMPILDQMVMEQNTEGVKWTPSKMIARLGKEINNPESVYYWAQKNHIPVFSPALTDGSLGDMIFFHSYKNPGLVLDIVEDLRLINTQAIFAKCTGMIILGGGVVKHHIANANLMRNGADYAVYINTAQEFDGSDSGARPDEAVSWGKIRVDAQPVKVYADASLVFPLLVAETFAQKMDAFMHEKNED

[2] = target: T2, deoxyhypusine synthase delY305_I306, patient-derived variant, His-tagged (human, UniProt P49366 1-369, delY305_I306)
T2 construct: deoxyhypusine synthase (DHS), Homo sapiens, UniProt P49366, residues 1-369, pathological variant lacking Y305 and I306; Primarily dimeric by mass photometry; also called DHS^delY305_I306; DHS^del305Y_306I; source: E. coli, purified from the soluble fraction; His-tagged protein labelled with RED-tris-NTA for MST; not shown: His6, N-terminal, kept
T2 sequence (looked up): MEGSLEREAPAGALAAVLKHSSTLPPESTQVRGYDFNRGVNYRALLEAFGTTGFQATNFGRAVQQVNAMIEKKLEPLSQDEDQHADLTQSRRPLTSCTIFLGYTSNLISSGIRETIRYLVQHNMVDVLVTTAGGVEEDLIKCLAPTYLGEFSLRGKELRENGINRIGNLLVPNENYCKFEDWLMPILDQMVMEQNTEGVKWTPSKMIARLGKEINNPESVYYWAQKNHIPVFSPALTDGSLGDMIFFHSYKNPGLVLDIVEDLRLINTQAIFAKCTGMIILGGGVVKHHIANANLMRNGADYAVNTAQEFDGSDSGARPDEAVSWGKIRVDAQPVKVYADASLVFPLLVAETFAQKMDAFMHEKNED

[3] = target: T3, deoxyhypusine synthase H288A, His-tagged (human, UniProt P49366 1-369, H288A)
T3 construct: deoxyhypusine synthase (DHS), Homo sapiens, UniProt P49366, residues 1-369; source: E. coli, purified; His-tagged protein labelled with RED-tris-NTA for MST; not shown: His6, N-terminal, kept
T3 sequence (looked up): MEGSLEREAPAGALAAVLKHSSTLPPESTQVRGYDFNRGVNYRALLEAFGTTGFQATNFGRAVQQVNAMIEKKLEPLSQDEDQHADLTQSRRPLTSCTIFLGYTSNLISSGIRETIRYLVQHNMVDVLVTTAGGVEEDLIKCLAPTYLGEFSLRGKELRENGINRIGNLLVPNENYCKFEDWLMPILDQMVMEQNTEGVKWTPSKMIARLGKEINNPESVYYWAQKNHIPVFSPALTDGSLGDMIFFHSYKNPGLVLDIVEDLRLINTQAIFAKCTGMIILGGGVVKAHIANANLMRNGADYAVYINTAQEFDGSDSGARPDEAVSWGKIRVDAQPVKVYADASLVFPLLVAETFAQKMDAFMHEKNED

[4] = target: T4, deoxyhypusine synthase, wild type, His-tagged (human, UniProt P49366 1-369)
T4 construct: deoxyhypusine synthase (DHS), Homo sapiens, UniProt P49366, residues 1-369; N-terminal 6xHis-tag followed by a TEV site (pET24d); tag kept for the His-tag labelling in MST; also called DHS; DHS^wt; source: E. coli, purified; His-tagged protein labelled with RED-tris-NTA for MST; not shown: His6, N-terminal, kept
T4 sequence (looked up): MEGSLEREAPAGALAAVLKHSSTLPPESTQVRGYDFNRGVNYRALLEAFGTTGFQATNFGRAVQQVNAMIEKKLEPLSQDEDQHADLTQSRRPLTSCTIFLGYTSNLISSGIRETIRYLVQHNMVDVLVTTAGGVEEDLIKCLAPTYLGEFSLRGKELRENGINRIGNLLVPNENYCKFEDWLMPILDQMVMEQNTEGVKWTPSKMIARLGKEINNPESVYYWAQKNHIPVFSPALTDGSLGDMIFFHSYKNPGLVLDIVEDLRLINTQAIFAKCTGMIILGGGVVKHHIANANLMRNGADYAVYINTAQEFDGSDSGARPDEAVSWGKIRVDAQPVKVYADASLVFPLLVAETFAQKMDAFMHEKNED

[5] = target: T5, deoxyhypusine synthase D243A, His-tagged (human, UniProt P49366 1-369, D243A)
T5 construct: deoxyhypusine synthase (DHS), Homo sapiens, UniProt P49366, residues 1-369; source: E. coli, purified; His-tagged protein labelled with RED-tris-NTA for MST; not shown: His6, N-terminal, kept
T5 sequence (looked up): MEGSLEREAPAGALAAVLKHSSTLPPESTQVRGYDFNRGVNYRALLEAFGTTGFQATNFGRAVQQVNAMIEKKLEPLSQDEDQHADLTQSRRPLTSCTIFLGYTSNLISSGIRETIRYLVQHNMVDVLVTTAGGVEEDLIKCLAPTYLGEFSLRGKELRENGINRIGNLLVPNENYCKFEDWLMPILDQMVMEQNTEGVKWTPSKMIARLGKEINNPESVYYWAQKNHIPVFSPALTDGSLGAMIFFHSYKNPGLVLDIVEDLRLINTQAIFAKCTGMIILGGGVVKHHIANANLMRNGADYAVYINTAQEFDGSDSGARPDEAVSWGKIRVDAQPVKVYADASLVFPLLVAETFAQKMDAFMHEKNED

B1: eukaryotic translation factor 5A-1 (eIF5A-1), residues 15-151 (domain or fragment)
chain: not shown
notes: eIF5A1 (eukaryotic translation factor 5A-1), human, residues 15-151, from pET28-MHL (Addgene); The general purification removes the His tag with TEV; A His-tagged eIF5A1 was used only in the hypusination assay; source: E. coli, purified (HisTrap, TEV cleavage, reverse HisTrap, SEC); not shown: His tag, N-terminal, cleaved
Kd [1]: > 1000 nM | Kd [2]: 80 ± 23.4 nM | Kd [3]: 49.7 ± 28.7 nM | Kd [4]: 33.8 ± 8.5 nM | Kd [5]: 511 ± 182 nM

Source: article PMC10042821, “Cryo-EM structure of human eIF5A-DHS complex reveals the molecular basis of hypusination-associated neurodegenerative disorders” (Nature Communications, 2023)
